In article PMC8761697, “Dehydrogenase reductase 9 (SDR9C4) and related homologs recognize a broad spectrum of lipid mediator oxylipins as substrates” (The Journal of Biological Chemistry, 2021):

How the values were obtained:
Assay in all cases: HPLC of oxidised product, Sf9 microsomes
Assay type in all cases: biochemical, Homo sapiens
Settings in all cases: apparent Km, NAD+-dependent oxidation, 90 mM potassium phosphate pH 7.3, 40 mM KCl, 37 °C
[1] = substrate: CCCCC/C=C\C=C\[C@@H](O)CCCCCCCC(=O)O
Description: (§1) HPLC of oxidised product, Sf9 microsomes on human RDH16 (SDR9C8)

[2] = substrate: CCCCC/C=C\C[C@H](O)/C=C/C=C\C/C=C\CCCC(=O)O
Description: as §1

[3] = substrate: CCCCC[C@H](O)/C=C/C=C\C/C=C\C/C=C\CCCC(=O)O
Description: as §1

[4] = substrate: CCCCC[C@H](O)/C=C/C=C\CCCCCCCC(=O)O
Description: as §1

[5] = substrate: CCCCC/C=C\C=C\[C@@H](O)CCCCCCCC(=O)O; remark: listed apart in the source
Description: (§2) HPLC of oxidised product, Sf9 microsomes on human HSD17B6 (SDR9C6)

[6] = substrate: CCCCC/C=C\C[C@H](O)/C=C/C=C\C/C=C\CCCC(=O)O; remark: listed apart in the source
Description: as §2

[7] = substrate: CCCCC[C@H](O)/C=C/C=C\C/C=C\C/C=C\CCCC(=O)O; remark: listed apart in the source
Description: as §2

[8] = substrate: CCCCC[C@H](O)/C=C/C=C\CCCCCCCC(=O)O; remark: listed apart in the source
Description: as §2

[9] = substrate: CC/C=C\C[C@H](O)/C=C/C=C\C=C\C=C\[C@@H](O)[C@@H](O)C/C=C\CCC(=O)O
Description: (§3) HPLC of oxidised product, Sf9 microsomes on human DHRS9 (SDR9C4)

[10] = substrate: CCCCC/C=C\C=C\[C@@H](O)CCCCCCCC(=O)O; remark: listed apart in the source
Description: as §3

[11] = substrate: CCCCC/C=C\C[C@@H](O)/C=C/C=C/C=C\[C@@H](O)CCCC(=O)O
Description: as §3

[12] = substrate: CCCCC/C=C\C[C@H](O)/C=C/C=C\C/C=C\CCCC(=O)O; remark: listed apart in the source
Description: as §3

[13] = substrate: CCCCC[C@H](O)/C=C/C=C\C/C=C\C/C=C\CCCC(=O)O; remark: listed apart in the source
Description: as §3

[14] = substrate: CCCCC[C@H](O)/C=C/C=C\C=C\C=C\[C@@H](O)[C@@H](O)CCCC(=O)O
Description: as §3

[15] = substrate: CCCCC[C@H](O)/C=C/C=C\CCCCCCCC(=O)O; remark: listed apart in the source
Description: as §3

B1: human RDH16 (SDR9C8) (Homo sapiens) (protein)
chain: MWLYLAVFVGLYYLLHWYRERQVLSHLRDKYVFITGCDSGFGKLLARQLDARGLRVLAACLTEKGAEQLRGQTSDRLETVTLDVTKTESVAAAAQWVKECVRDKGLWGLVNNAGISLPTAPNELLTKQDFVTILDVNLLGVIDVTLSLLPLVRRARGRVVNVSSVMGRVSLFGGGYCISKYGVEAFSDSLRRELSYFGVKVAMIEPGYFKTAVTSKERFLKSFLEIWDRSSPEVKEAYGEKFVADYKKSAEQMEQKCTQDLSLVTNCMEHALIACHPRTRYSAGWDAKLLYLPMSYMPTFLVDAIMYWVSPSPAKAL
notes: recombinant, baculovirus-infected Sf9 cell microsomes
**Q.** How did the Km [1] turn out when B1 was run?
**A.** 1.76 ± 0.59 µM

**Q.** What about the Vmax [1] of the same protein?
**A.** 1.67e-05 µmol/min

**Q.** What about the Km [2] of the same protein?
**A.** 2.01 ± 0.64 µM

**Q.** What about the Vmax [2] of the same protein?
**A.** 2.15e-06 µmol/min

**Q.** What about the Km [3] of the same protein?
**A.** 1.39 ± 0.56 µM

**Q.** And the Vmax [3]?
**A.** 2.04e-05 µmol/min

**Q.** What about the Km [4] of the same protein?
**A.** 0.83 ± 0.36 µM

**Q.** What about the Vmax [4] of the same protein?
**A.** 7.7e-06 µmol/min

B2: human HSD17B6 (SDR9C6) (Homo sapiens) (protein)
chain: YRERQVVSHLQDKYVFITGCDSGFGNLLARQLDARGLRVLAACLTEKGAEQLRGQTSDRLETVTLDVTKMESIAAATQWVKEHVGDRGLWGLVNNAGILTPITLCEWLNTEDSMNMLKVNLIGVIQVTLSMLPLVRRARGRIVNVSSILGRVAFFVGGYCVSKYGVEAFSDILRREIQHFGVKISIVEPGYFRTGMTNMTQSLERMKQSWKEAPKHIKETYGQQYFDALYNIMKEGLLNCSTNLNLVTDCMEHALTSVHPRTRYSAGWDAKFFFIPLSYLPTSLADYILTRSWPKPAQAV
notes: as for B1
**Q.** For B2, which Km [5] is on record?
**A.** 0.64 ± 0.28 µM

**Q.** And the Vmax [5]?
**A.** 4e-07 µmol/min

**Q.** And the Km [6]?
**A.** 0.87 ± 0.35 µM

**Q.** What about the Vmax [6] of the same protein?
**A.** 7.96e-06 µmol/min

**Q.** What about the Km [7] of the same protein?
**A.** 1.78 ± 0.42 µM

**Q.** And the Vmax [7]?
**A.** 2.88e-06 µmol/min

**Q.** And the Km [8]?
**A.** 0.33 ± 0.24 µM

**Q.** What about the Vmax [8] of the same protein?
**A.** 9e-07 µmol/min

B3: human DHRS9 (SDR9C4) (Homo sapiens) (protein)
chain: RKGKLKIEDITDKYIFITGCDSGFGNLAARTFDKKGFHVIAACLTESGSTALKAETSERLRTVLLDVTDPENVKRTAQWVKNQVGEKGLWGLINNAGVPGVLAPTDWLTLEDYREPIEVNLFGLISVTLNMLPLVKKAQGRVINVSSVGGRLAIVGGGYTPSKYAVEGFNDSLRRDMKAFGVHVSCIEPGLFKTNLADPVKVIEKKLAIWEQLSPDIKQQYGEGYIEKSLDKLKGNKSYVNMDLSPVVECMDHALTSLFPKTHYAAGKDAKIFWIPLSHMPAALQDFLLLKQKAELANPKAV
notes: as for B1
**Q.** What does the source list for B3?
**A.** Km [9]: 1.6 ± 0.5 µM; Vmax [9]: 8.5e-05 µmol/min; Km [10]: 0.57 ± 0.25 µM; Vmax [10]: 2.4e-05 µmol/min; Km [11]: 0.76 ± 0.44 µM; Vmax [11]: 0.00017 µmol/min; Km [12]: 0.43 ± 0.16 µM; Vmax [12]: 0.00022 µmol/min; Km [13]: 0.36 ± 0.18 µM; Vmax [13]: 0.00014 µmol/min; Km [14]: 4.6 ± 2.7 µM; Vmax [14]: 0.00023 µmol/min; Km [15]: 0.46 ± 0.19 µM; Vmax [15]: 0.00011 µmol/min
